Results taken from patent US20230303666A1 (published 2023).

Target: recombinant RBD (ThermoFisher, RP-87678) (SARS-CoV-2, UniProt P0DTC2 319-541)

B1: SR6v15 with GST tag (VHH, not shown: a dimerising Fc or GST)
VHH: EVQLVESGGGLVQAGDSLRLSCAASGDSYILWRMGWFRQAPGKEREFVAAISLDGQFTNYADSVRGRFSISADSAKYTVYLQMNSLKPEDTAVYYCAALPFLDYWGQGTQVTVSS
With B1 the Kd was 2.18 nM.
